The labels stand for the following.
T1: recombinant human CD123-Fc (human, UniProt P26951 19-305)
T1 construct: not shown: Fc part of CD123-Fc
T1 sequence: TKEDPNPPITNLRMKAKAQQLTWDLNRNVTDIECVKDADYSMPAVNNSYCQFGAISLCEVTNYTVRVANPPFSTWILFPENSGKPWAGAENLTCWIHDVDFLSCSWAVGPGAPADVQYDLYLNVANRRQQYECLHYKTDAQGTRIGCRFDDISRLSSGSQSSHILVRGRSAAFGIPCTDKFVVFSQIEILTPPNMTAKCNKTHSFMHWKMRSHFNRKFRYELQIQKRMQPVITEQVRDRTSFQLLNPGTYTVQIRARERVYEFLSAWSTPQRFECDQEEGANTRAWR

B1: SEQ ID NO: 409 (designed binder)
chain: MGSWVEFHMRLDAIYERLDALGGSEAELAAFEKEIAAFESELQAYKGKGNPEVEWLRTAAANIRVELQAYRHN
notes: D domain, on phage
B2: SEQ ID NO: 415 (designed binder)
chain: B1 chain with H8E, Y15V, E16G, D19Y, W55K, T58R, A59W, V65S
notes: D domain, on phage
B3: SEQ ID NO: 324 (designed binder)
chain: MGSWYEFVIRLEAIEDRLWALGGSEAELAAFEKEIAAFESELQAYKGKGNPEVEVLRWYAADIRHELQAYRHN
notes: D domain, on phage
B4: SEQ ID NO: 326 (designed binder)
chain: B3 chain with Y5T, V8S, E15Y, W19V, W58T, D62F
notes: D domain, on phage
B5: SEQ ID NO: 402 (designed binder)
chain: B1 chain with V5S, H8N, D19T, T58H, A59S, N62R, V65L
notes: D domain, on phage
B6: SEQ ID NO: 411 (designed binder)
chain: B1 chain with V5N, H8V, M9I, D19L, W55Y, T58M, V65M
notes: D domain, on phage
B7: SEQ ID NO: 408 (designed binder)
chain: B1 chain with H8Y, M9T, E16G, T58Q, A59V, V65M
notes: D domain, on phage
B8: SEQ ID NO: 412 (designed binder)
chain: MGSWSEFYVRVDAIYARLSALGGSEAELAAFEKEIAAFESELQAYKGKGNPEVEKLRVWAANIRHELQAYRHN
notes: D domain, on phage
B9: SEQ ID NO: 418 (designed binder)
chain: B1 chain with V5T, H8N, M9L, E16D, D19M, T58A, A59S, N62A
notes: D domain, on phage
B10: SEQ ID NO: 406 (designed binder)
chain: B1 chain with V5Y, H8A, M9K, D19V, T58S, A59S, V65E
notes: D domain, on phage
B11: SEQ ID NO: 416 (designed binder)
chain: B1 chain with H8N, M9I, D19Y, W55K, T58H, A59W, N62S, V65R
notes: D domain, on phage
B12: SEQ ID NO: 404 (designed binder)
chain: B1 chain with V5I, H8N, D19V, T58K, A59V, V65L
notes: D domain, on phage
B13: SEQ ID NO: 413 (designed binder)
chain: B8 chain with Y8H, V11L, S19D, K55R, V58E, H65R
notes: D domain, on phage
B14: SEQ ID NO: 414 (designed binder)
chain: B1 chain with M9L, E16G, D19M, W55N, T58V, A59W, V65N
notes: D domain, on phage
B15: SEQ ID NO: 410 (designed binder)
chain: B8 chain with S5Y, Y8A, V9I, V11L, A16E, S19H, K55Y, H65T
notes: D domain, on phage
B16: SEQ ID NO: 405 (designed binder)
chain: B1 chain with V5Y, M9H, D19L, T58S, A59S, V65K
notes: D domain, on phage
B17: SEQ ID NO: 419 (designed binder)
chain: B1 chain with V5T, H8N, M9L, E16G, D19S, W55F, T58A
notes: D domain, on phage
B18: SEQ ID NO: 325 (designed binder)
chain: B3 chain with Y5T, V8S, E15Y, W19V, W58T, D62N
notes: D domain, on phage
B19: SEQ ID NO: 420 (designed binder)
chain: B1 chain with H8N, M9W, E16D, D19V, T58V, A59S, N62K, V65G
notes: D domain, on phage
B20: SEQ ID NO: 403 (designed binder)
chain: B1 chain with V5S, H8N, D19T, T58H, A59S, N62L, V65L
notes: D domain, on phage
B21: SEQ ID NO: 407 (designed binder)
chain: B1 chain with V5T, H8Y, M9V, T58M, A59V, V65T
notes: D domain, on phage
B22: SEQ ID NO: 417 (designed binder)
chain: B1 chain with V5H, H8G, M9V, E16D, D19M, W55F, T58Q, V65S
notes: D domain, on phage
B23: SEQ ID NO: 318 (designed binder)
chain: MGSWVEFWFRLEAIDSRLWALGGSEAELAAFEKEIAAFESELQAYKGKGNPEVEWLREEAAAIREDLQAYRHN
notes: D domain, on phage
B24: SEQ ID NO: 322 (designed binder)
chain: B23 chain with V5Y, W8E, F9T, D15Y, S16D, W55L, E58V, A62E
notes: D domain, on phage
B25: SEQ ID NO: 369 (designed binder)
chain: MGSWFEFDDRLWAIENRLWALGGSEAELAAFEKEIAAFESELQAYKGKGNPEVEVLRDNAAWIREILQAYRHN
notes: D domain, on phage
B26: SEQ ID NO: 364 (designed binder)
chain: B1 chain with H8D, M9Q, D19Y, T58D, A59E, N62E, V65E, E66H
notes: D domain, on phage
B27: SEQ ID NO: 329 (designed binder)
chain: B23 chain with W8H, F9D, D15E, S16D, W19Y, E59D, A62Y, E65S, D66I
notes: D domain, on phage
B28: SEQ ID NO: 381 (designed binder)
chain: B23 chain with V5F, W8H, F9D, E12W, S16E, W55I, A62D, E65L
notes: D domain, on phage
B29: SEQ ID NO: 363 (designed binder)
chain: B1 chain with H8D, D12S, Y15W, D19I, T58E, A59D, N62E, V65E, E66F
notes: D domain, on phage
B30: SEQ ID NO: 368 (designed binder)
chain: B25 chain with F5Y, D8Y, D9E, W12D, N16E, N59W, I66D
notes: D domain, on phage
B31: SEQ ID NO: 380 (designed binder)
chain: B25 chain with D8E, W12E, E15Y, N16Q, W19D, V55W, N59E, E65S, I66D
notes: D domain, on phage
B32: SEQ ID NO: 383 (designed binder)
chain: B25 chain with D8Q, E15D, V55E, N59H, W62M, E65W, I66E
notes: D domain, on phage
B33: SEQ ID NO: 382 (designed binder)
chain: B25 chain with F5Y, D8E, E15D, V55E, D58V, N59H, W62D, E65D, I66D
notes: D domain, on phage
B34: SEQ ID NO: 320 (designed binder)
chain: B23 chain with V5S, F9Q, D15E, S16D, E59N, A62M, E65D, D66E
notes: D domain, on phage
B35: SEQ ID NO: 370 (designed binder)
chain: B25 chain with F5Y, D8W, W12D, I14L, N16D, V55Y, N59S, W62F, I66E
notes: D domain, on phage
B36: SEQ ID NO: 372 (designed binder)
chain: B25 chain with F5D, D8V, N16E, V55E, D58I, N59Q, W62I, I66A
notes: D domain, on phage
B37: SEQ ID NO: 330 (designed binder)
chain: MGSWIEFYDRLEAIYDRLDALGGSEAELAAFEKEIAAFESELQAYKGKGNPEVEWLREDAAFIRSWLQAYRHN
notes: D domain, on phage
B38: SEQ ID NO: 397 (designed binder)
chain: B23 chain with V5M, W8E, F9E, E12W, E58S, A62W, E65M, D66E
notes: D domain, on phage
B39: SEQ ID NO: 328 (designed binder)
chain: B37 chain with I5V, Y8H, D9E, Y15E, D19M, W55Y, S65Q, W66L
notes: D domain, on phage
B40: SEQ ID NO: 332 (designed binder)
chain: B37 chain with I5V, Y8H, Y15E, D19L, W55D, D59Y, F62G, S65W, W66F
notes: D domain, on phage
B41: SEQ ID NO: 367 (designed binder)
chain: B23 chain with W8Y, F9S, E12D, D15E, S16D, E58I, E59A, A62S
notes: D domain, on phage
B42: SEQ ID NO: 321 (designed binder)
chain: B23 chain with V5S, W8I, F9T, S16D, W55I, A62E, E65Q, D66H
notes: D domain, on phage
B43: SEQ ID NO: 317 (designed binder)
chain: B25 chain with F5A, D8E, N16D, V55Y, D58E, N59E, W62A, E65F, I66E
notes: D domain, on phage
B44: SEQ ID NO: 379 (designed binder)
chain: B23 chain with V5F, F9D, D15W, S16E, W19D, W55E, E58R, A62I
notes: D domain, on phage
B45: SEQ ID NO: 331 (designed binder)
chain: B37 chain with I5V, Y8D, D9Q, D19Y, F62Q, S65K
notes: D domain, on phage
B46: SEQ ID NO: 319 (designed binder)
chain: B23 chain with F9Q, D15E, W55F, A62E, E65W, D66E
notes: D domain, on phage
B47: SEQ ID NO: 371 (designed binder)
chain: B23 chain with V5M, W8V, F9D, E12D, D15E, E58I, A62F, D66E
notes: D domain, on phage
B48: SEQ ID NO: 316 (designed binder)
chain: B23 chain with V5T, W8H, F9D, S16D, W55Y, A62Q, E65W, D66E
notes: D domain, on phage
B49: SEQ ID NO: 323 (designed binder)
chain: B3 chain with Y5T, V8Y, I9Y, V55F, W58V, Y59E, D62N, H65D, E66M
notes: D domain, on phage

Numbering of substitutions follows the chain as printed.

The target in this assay is T1, recombinant human CD123-Fc. Description: phage ELISA, captured CD123-Fc. The protocol:
Individual colonies containing phagemid from BCMA panning output were picked and phage were rescued in 96-well format using VCSM13 helper phage following standard protocols. To assay target binding by ELISA, 96-well plates were coated with 1.3 microg/ml goat anti-human IgG1-Fc antibody followed by incubation with 5 nM of recombinant human target (BCMA-Fc, CD123-Fc, AFP, or AFP123) or IgG1-Fc. 50 microl of rescued phage diluted 5× in ELISA blocking buffer was then added to each well. Binding was detected using an HRP-conjugated anti-M13 antibody and the ELISA ratio for each sequence is reported as the absorbance at 450 nm for target (i.e., BCMA-Fc, CD123-Fc, AFP, or AFP123) divided by that for IgG1-Fc averaged across all screened wells containing that clone.
Background: ELISA stands for enzyme-linked immunosorbent assay.
For the molecule B1, the ELISA_avg is 9.1 ratio A450 target/IgG1-Fc.
For B2, the ELISA_avg was 25.3 ratio A450 target/IgG1-Fc.
As for B3, the figure is 6.4 ratio A450 target/IgG1-Fc; as for B4, 10.2 ratio A450 target/IgG1-Fc.
On to B5, for which the ELISA_avg was determined as 13.7 ratio A450 target/IgG1-Fc.
As for B6, the figure is 16.6 ratio A450 target/IgG1-Fc; as for B7, 14.4 ratio A450 target/IgG1-Fc.
Take B8: the ELISA_avg was determined as 14.7 ratio A450 target/IgG1-Fc.
As for B9, the figure is 14.4 ratio A450 target/IgG1-Fc; as for B10, 15.3 ratio A450 target/IgG1-Fc.
As for B11, the figure is 13.4 ratio A450 target/IgG1-Fc; as for B12, 11.4 ratio A450 target/IgG1-Fc; as for B13, 14.4 ratio A450 target/IgG1-Fc.
The value for B14 was 17.5 ratio A450 target/IgG1-Fc; that for B15 was 25.5 ratio A450 target/IgG1-Fc.
Consider B16, for which the ELISA_avg was 11.9 ratio A450 target/IgG1-Fc.
The value for B17 was 19.3 ratio A450 target/IgG1-Fc; that for B18 was 11.9 ratio A450 target/IgG1-Fc.
As for B19, the figure is 9.3 ratio A450 target/IgG1-Fc.
In the case of B20, the ELISA_avg amounted to 11.4 ratio A450 target/IgG1-Fc.
Take B21: the ELISA_avg is 16 ratio A450 target/IgG1-Fc.
As to B22, the ELISA_avg came out at 15.6 ratio A450 target/IgG1-Fc.
For B23, the ELISA_avg came to 3.2 ratio A450 target/IgG1-Fc.
With B24, the ELISA_avg stood at 3.2 ratio A450 target/IgG1-Fc.
With B25, the ELISA_avg came to 4.2 ratio A450 target/IgG1-Fc.
As for B26, the figure is 10.5 ratio A450 target/IgG1-Fc; as for B27, 4.6 ratio A450 target/IgG1-Fc; as for B28, 3.5 ratio A450 target/IgG1-Fc.
Consider B29, for which the ELISA_avg was 3.3 ratio A450 target/IgG1-Fc.
The value for B30 was 8.4 ratio A450 target/IgG1-Fc.
Consider B31, for which the ELISA_avg is 5.5 ratio A450 target/IgG1-Fc.
In the case of B32, the ELISA_avg was found to be 3.2 ratio A450 target/IgG1-Fc.
The value for B33 was 4.9 ratio A450 target/IgG1-Fc; that for B34 was 4.7 ratio A450 target/IgG1-Fc; that for B35 was 9.7 ratio A450 target/IgG1-Fc.
Take B36: the ELISA_avg was found to be 6 ratio A450 target/IgG1-Fc.
On to B37, for which the ELISA_avg stood at 7.5 ratio A450 target/IgG1-Fc.
As for B38, the ELISA_avg was 3.2 ratio A450 target/IgG1-Fc.
As for B39, the ELISA_avg came to 3.7 ratio A450 target/IgG1-Fc.
As for B40, the figure is 3.3 ratio A450 target/IgG1-Fc.
As for B41, the figure is 9.4 ratio A450 target/IgG1-Fc.
Consider B42, for which the ELISA_avg stood at 3.3 ratio A450 target/IgG1-Fc.
Turning to B43, the ELISA_avg amounted to 6.2 ratio A450 target/IgG1-Fc.
As for B44, the figure is 10.3 ratio A450 target/IgG1-Fc; as for B45, 5.1 ratio A450 target/IgG1-Fc.
As to B46, the ELISA_avg stood at 7.7 ratio A450 target/IgG1-Fc.
As to B47, the ELISA_avg amounted to 5.8 ratio A450 target/IgG1-Fc.
As to B48, the ELISA_avg stood at 5.8 ratio A450 target/IgG1-Fc.
As for B49, the figure is 7.5 ratio A450 target/IgG1-Fc.

The values above are taken from patent US20230125550A1 (ARCELLX, published 2023).
